1 molecule from patent WO2021190480A1 (dated 2021) can be followed below.

The assay deals with T1, His-tagged human TROP-2 protein (TROP-2-His), Sino Biological cat# 10428-H08H (human, UniProt P09758 27-274).
T1 construct: also called TROP-2His protein; human TROP-2His antigen; not shown: His tag
T1 sequence (looked up): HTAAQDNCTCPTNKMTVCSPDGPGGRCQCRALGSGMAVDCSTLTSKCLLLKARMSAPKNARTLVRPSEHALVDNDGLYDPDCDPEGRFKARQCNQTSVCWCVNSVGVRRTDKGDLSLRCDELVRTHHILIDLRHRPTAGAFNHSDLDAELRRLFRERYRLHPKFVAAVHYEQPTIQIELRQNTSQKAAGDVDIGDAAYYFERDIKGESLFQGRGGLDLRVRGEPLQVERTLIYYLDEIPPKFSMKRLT
Briefly: indirect ELISA, TROP-2-His coated at 1 ug/ml.

B1: murine monoclonal antibody M1 (antibody, V domains shown)
VH: QVQLQQPGAELVRPGASVKLSCRASGYTFTNYWMNWVKQRPEQGLEWIGRIDPNDSETHYNQKFKDRAILTVDKASNTAYMQLSGLTSEDSAVHYCARSGFGSTYWFFDVWGAGTTVTVSS
VL: DIVMTQSHKFMSTSVGDRVSITCKASQDVSTAVAWYQQKPGQSPKLLIYSASYRYTGVPDRFAGSGYGTDFTFTISSVQTEDLTVYHCQQHYSTPLTFGPGTRLELK
For B1, the midpoint of the response, the EC50, lay at 0.56 nM.
